The values below are quoted from earlier work in article PMC6359508.

The data set addresses actin microfilament (UniProt P68133).

In general, Kd refers to the equilibrium constant for the complex coming apart. As for “V-ATPase B subunit (from UniProt P21281)”, the dissociation constant Kd was 150 nM.
